Laboratory results: article PMC314469, “Protein Interaction Networks by Proteome Peptide Scanning” (PLoS Biology, 2004)
Values belong to the binder of their own block, whether it stands above or below them.

Target: T1, Abp1 SH3 (ABP1_YEAST), P15891
T1 chain: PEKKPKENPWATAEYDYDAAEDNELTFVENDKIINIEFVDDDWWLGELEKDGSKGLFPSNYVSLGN
Experiment: SPOT array

normalised SPOT signal, Boehringer light units (BLU); mean over the file's lines of this peptide: 96.8
B1: YBL054W 203-215 (peptide)
chain: STFSDHEPQHTKP

normalised SPOT signal, Boehringer light units (BLU); mean over the file's lines of this peptide: 66.1
B2: YGL092W 308-320 (peptide)
chain: SPNEIFSPSYSKP

normalised SPOT signal, Boehringer light units (BLU); mean over the file's lines of this peptide: 201
B4: YNL139C 1440-1453 (peptide)
chain: SSYAHKRSELPTRP

normalised SPOT signal, Boehringer light units (BLU); mean over the file's lines of this peptide: 238
B5: YFR019W 125-137 (peptide)
chain: SSTIKRYPSRYKP

normalised SPOT signal, Boehringer light units (BLU); mean over the file's lines of this peptide: 129
B6: YDR178W 31-44 (peptide)
chain: SLTIPFLPVLPQKP

normalised SPOT signal, Boehringer light units (BLU); mean over the file's lines of this peptide: 13300
B7: YNL106C 1109-1121 (peptide)
chain: STKPEKPPVVKKP

normalised SPOT signal, Boehringer light units (BLU); mean over the file's lines of this peptide: 205
B9: YAL047C 42-55 (peptide)
chain: SMTTRSSHNDPIKP

normalised SPOT signal, Boehringer light units (BLU); mean over the file's lines of this peptide: 89.3
B11: YER019W 144-156 (peptide)
chain: STFLYRFPINGRP

normalised SPOT signal, Boehringer light units (BLU); mean over the file's lines of this peptide: 83.8
B12: YOR290C 408-421 (peptide)
chain: SNKTHTEQNNPPKP

normalised SPOT signal, Boehringer light units (BLU); mean over the file's lines of this peptide: 21.8
B13: YNL298W 398-411 (peptide)
chain: SPSPSPSPLNPYRP

normalised SPOT signal, Boehringer light units (BLU); mean over the file's lines of this peptide: 0
B15: YOR023C 198-210 (peptide)
chain: SNGLLLEPSALRP

normalised SPOT signal, Boehringer light units (BLU); mean over the file's lines of this peptide: 98.8
B16: YDR273W 125-138 (peptide)
chain: SPEENTDFALPMKP

normalised SPOT signal, Boehringer light units (BLU); mean over the file's lines of this peptide: 243
B18: YIL056W 426-439 (peptide)
chain: SNRATLLTTLPMKP

normalised SPOT signal, Boehringer light units (BLU); mean over the file's lines of this peptide: 34.3
B19: YIL156W 492-504 (peptide)
chain: SSTKVPEPPSWKP

normalised SPOT signal, Boehringer light units (BLU); mean over the file's lines of this peptide: 70.4
B20: YOR329C 434-447 (peptide)
chain: SNGAIQTGLQPLKP

normalised SPOT signal, Boehringer light units (BLU); mean over the file's lines of this peptide: 1250
B22: YKR089C 884-896 (peptide)
chain: SQATKSSPFRSRP

normalised SPOT signal, Boehringer light units (BLU); mean over the file's lines of this peptide: 390
B23: YMR280C 1387-1400 (peptide)
chain: SSGPSASHRGPRRP

normalised SPOT signal, Boehringer light units (BLU); mean over the file's lines of this peptide: 144
B24: YNL014W 670-682 (peptide)
chain: SNMTFQYPGTTKP

normalised SPOT signal, Boehringer light units (BLU); mean over the file's lines of this peptide: 37.9
B25: YOR266W 165-178 (peptide)
chain: SLPTSSSAKAPLRP

normalised SPOT signal, Boehringer light units (BLU); mean over the file's lines of this peptide: 327
B29: YDR419W 378-390 (peptide)
chain: SRGRYGLPLSSRP

normalised SPOT signal, Boehringer light units (BLU); mean over the file's lines of this peptide: 2700
B33: YPL137C 250-262 (peptide)
chain: SPMRGVAPTASKP

normalised SPOT signal, Boehringer light units (BLU); mean over the file's lines of this peptide: 95.4
B34: YER005W 601-613 (peptide)
chain: SQSANLAPSNLRP

normalised SPOT signal, Boehringer light units (BLU); mean over the file's lines of this peptide: 70.9
B35: YPL202C 310-323 (peptide)
chain: SSSSSILPSTPTRP

normalised SPOT signal, Boehringer light units (BLU); mean over the file's lines of this peptide: 86.2
B36: YGL114W 7-19 (peptide)
chain: SQEVQRVPWDNKP

normalised SPOT signal, Boehringer light units (BLU); mean over the file's lines of this peptide: 117
B39: YAL043C 192-204 (peptide)
chain: STIPDNHPVLNKP

normalised SPOT signal, Boehringer light units (BLU); mean over the file's lines of this peptide: 46
B41: YJR138W 1326-1339 (peptide)
chain: SNASVADAKEPSRP

normalised SPOT signal, Boehringer light units (BLU); mean over the file's lines of this peptide: 377
B42: YJR035W 262-274 (peptide)
chain: SQRSSDLPEWRRP

normalised SPOT signal, Boehringer light units (BLU); mean over the file's lines of this peptide: 85.8
B45: YBL054W 173-185 (peptide)
chain: SSAIEDSPPDFKP

normalised SPOT signal, Boehringer light units (BLU); mean over the file's lines of this peptide: 69
B49: YGR178C 412-425 (peptide)
chain: SSTLKSNSSLPPKP

normalised SPOT signal, Boehringer light units (BLU); mean over the file's lines of this peptide: 104
B50: YAL019W 19-32 (peptide)
chain: SSPTKVASSSPLKP

normalised SPOT signal, Boehringer light units (BLU); mean over the file's lines of this peptide: 130
B52: YBR010W 32-44 (peptide)
chain: STGGVKKPHRYKP

normalised SPOT signal, Boehringer light units (BLU); mean over the file's lines of this peptide: 67200
B53: YOR367W 152-164 (peptide)
chain: STKKPRPPVKSKP

normalised SPOT signal, Boehringer light units (BLU); mean over the file's lines of this peptide: 136
B58: YKL020C 555-567 (peptide)
chain: STMVTYLPPSSKP

Further lines, the binder ahead of its results:

B3: YLR079W 24-37 (peptide)
chain: SSALMQGQKTPQKP
normalised SPOT signal, Boehringer light units (BLU); mean over the file's lines of this peptide: 335

B8: YPR181C 246-258 (peptide)
chain: SPDQWSVPAGHRP
normalised SPOT signal, Boehringer light units (BLU); mean over the file's lines of this peptide: 65.3

B10: YNL152W 392-404 (peptide)
chain: SRKNSMSPTRKRP
normalised SPOT signal, Boehringer light units (BLU); mean over the file's lines of this peptide: 209

B14: YBL058W 387-400 (peptide)
chain: SRNFTLNYAFPIKP
normalised SPOT signal, Boehringer light units (BLU); mean over the file's lines of this peptide: 80.1

B17: YBR102C 22-35 (peptide)
chain: SPAKQKTPPSPAKP
normalised SPOT signal, Boehringer light units (BLU); mean over the file's lines of this peptide: 54.6

B21: YPR008W 490-502 (peptide)
chain: SNYITDRPFTRKP
normalised SPOT signal, Boehringer light units (BLU); mean over the file's lines of this peptide: 409

B26: YKL108W 250-262 (peptide)
chain: STSFSPSPLIRRP
normalised SPOT signal, Boehringer light units (BLU); mean over the file's lines of this peptide: 550

B27: YDL180W 227-240 (peptide)
chain: SNNVYSSEYHPIKP
normalised SPOT signal, Boehringer light units (BLU); mean over the file's lines of this peptide: 12.1

B28: YER040W 495-507 (peptide)
chain: SSSRSVVPILPKP
normalised SPOT signal, Boehringer light units (BLU); mean over the file's lines of this peptide: 329

B30: YNL307C 267-279 (peptide)
chain: SNPAYDGPLFSKP
normalised SPOT signal, Boehringer light units (BLU); mean over the file's lines of this peptide: 95.6

B31: YDR451C 284-297 (peptide)
chain: SSIFEDHHITPSKP
normalised SPOT signal, Boehringer light units (BLU); mean over the file's lines of this peptide: 0

B32: YKL015W 850-862 (peptide)
chain: SNIVSILPEGAKP
normalised SPOT signal, Boehringer light units (BLU); mean over the file's lines of this peptide: 106

B37: YML027W 280-293 (peptide)
chain: SSSSSPLENTPPRP
normalised SPOT signal, Boehringer light units (BLU); mean over the file's lines of this peptide: 159

B38: YNL230C 233-245 (peptide)
chain: SSSPKKGPLSIKP
normalised SPOT signal, Boehringer light units (BLU); mean over the file's lines of this peptide: 347

B40: YLR144C 4-16 (peptide)
chain: SRQAIPPPVPNRP
normalised SPOT signal, Boehringer light units (BLU); mean over the file's lines of this peptide: 2950

B43: YLR155C 216-229 (peptide)
chain: SNDDVEFYYPPVKP
normalised SPOT signal, Boehringer light units (BLU); mean over the file's lines of this peptide: 92.8

B44: YJL076W 1069-1081 (peptide)
chain: SSILHDLPRKVRP
normalised SPOT signal, Boehringer light units (BLU); mean over the file's lines of this peptide: 786

B46: YGL201C 3-15 (peptide)
chain: SPFPADTPSSNRP
normalised SPOT signal, Boehringer light units (BLU); mean over the file's lines of this peptide: 114

B47: YDL145C 11-24 (peptide)
chain: STRAKGIAFHPSRP
normalised SPOT signal, Boehringer light units (BLU); mean over the file's lines of this peptide: 119

B48: YER131W 88-101 (peptide)
chain: SREDRKNRAPPQRP
normalised SPOT signal, Boehringer light units (BLU); mean over the file's lines of this peptide: 109

B51: YDR158W 154-167 (peptide)
chain: SNSSTAGLVAPLKP
normalised SPOT signal, Boehringer light units (BLU); mean over the file's lines of this peptide: 61.1

B54: YER116C 142-154 (peptide)
chain: SPMLDAAPPTTKP
normalised SPOT signal, Boehringer light units (BLU); mean over the file's lines of this peptide: 158

B55: YGL008C 14-26 (peptide)
chain: SSVSAHQPTQEKP
normalised SPOT signal, Boehringer light units (BLU); mean over the file's lines of this peptide: 161

B56: YLR047C 278-291 (peptide)
chain: SLLEFPLTDLPKKP
normalised SPOT signal, Boehringer light units (BLU); mean over the file's lines of this peptide: 118

B57: YKL027W 380-393 (peptide)
chain: STRLTLTKWDPSKP
normalised SPOT signal, Boehringer light units (BLU); mean over the file's lines of this peptide: 209
